# The DeepSol protein solubility set
# Assay: soluble on expression in E. coli; label from the status in PepcDB or PDB records
row,Sequence,soluble on expression in E. coli
1,MGSDKIHHHHHHMASESWMKTQAPDPTNLPAEINPEVPSIARVYDYFLGGKDNFPADRAAAAAVEKVFPQGKQLGRESRMLLRRATRELVRAGVRQFLDIGSGLPTAGNVHEIAHEIDPEVRVVYIDNDPVVLAHGRALLADEVTTTVVQADLRHPDGIFDNPEVRALLDFDQPVAVFLASILHHFDDSDDPWALSRKIRDRISSGSYMLITHFYDSGDPVCREVEQALLEGGLGSGWFRTKEQIERFFEGMDVLEPGVVAANEWRPDAETPTDSTTHHLLAGGLARKP,not soluble
2,MQLYYLGPKGTFSYLACRQYFSENEATFQPKSNLFEVIKAVADDDTSIGVVPIENSIEGTINIVADALAQQDVFAHGEIRLDINFALYGNGTDSISDIKKVYSIAPAISQTTNYIHQHQFDYDYVDSTIQSLTKIENGVAAIAPLGSGEAYGFTPIDTHIEDYPHNVTRFLVIKNQQQFDQNATSLMFLITPMHDKPGLLASVLNTFALFNINLSWIESRPLKTQLGMYRFFVQADSAITTDIKKVIAILETLDFKVEMIGAFN,soluble
3,MGVKTFQFPFAEQLEKVAEQFPTFQILNEEGEVVNEEAMPELSDEQLKELMRRMVYTRILDQRSISLNRQGRLGFYAPTAGQEASQIASHFALEKEDFILPGYRDVPQIIWHGLPLYQAFLFSRGHFHGNQIPEGVNVLPPQIIIGAQYIQAAGVALGLKMRGKKAVAITYTGDGGTSQGDFYEGINFAGAFKAPAIFVVQNNRFAISTPVEKQTVAKTLAQKAVAAGIPGIQVDGMDPLAVYAAVKAARERAINGEGPTLIETLCFRYGPHTMSGDDPTRYRSKELENEWAKKDPLVRFRKFLEAKGLWSEEEENNVIEQAKEEIKEAIKKADETPKQKVTDLISIMFEELPFNLKEQYEIYKEKESK,soluble
4,GMSVNGIEVAKPFIAATVNVLSTMAGIQPQPGKPYVKKNNVAKGDVSAVIGITGHKNGSISVTFTKSCAIALVKGMLGDDIQDILQDTKDAVGEVTNMISGQARAGLAEMGMVFQGSTPSVIMGDGHTISHVTKSPIMAIPFLTNHGEFTVEFCFE,soluble
5,MGSDKIHHHHHHMQLKLSSVSKKFDHKIILEDTSFTFEQGKIYGLLGRNGAGKTTLFNCIARNLTLDGGSIQFVKDEIAFDYDNTDIGFTQTYPQLPAFMTAYEFVRFYMDIHKDKLKSPRSPEEWLNLVGIGEEDRHRLLKDFSHGMQNKVQLLLSLIVQPPVLLLDEPLTSFDPVAAHEFKQLIREAKKDSVIIFSTHILQLAQDLCDEIVLLHHQELQAVPSDKLHDPDFEQEVVTLLTAD,not soluble
6,MDRRIAMSLQVLGAGLGRTGTLSLKFALEHLGFGPCYHATEVAANMRTALPLWNAAERGAADWSAIFAGYRSSTDHPGCYYWRQLIEVYPQAKVVLTVRDPDSWFESVTQTILMPGRKSTFVGPEGETFSTFLKQQMGGRSQDRAFMVDYFNRWNQAVIDAVPSDRLLVFSSRQGWAPLCGFLSVPVPHKPYPHLHARPRLRWFTRGLRLPDDVAARERHVREYLQYLREDLFGLEHHHHHH,soluble
7,LDPSGKSVIYTKSLAFEKALVRPEKEVKKVHTALDALNSSLADGRGVDFAYMMSIYQVESQMTLIEELGDLIMPDPEKYLNGELTYVSRQDFLSGDVVTKLEVVDLFVKQDNQDFNWSHYAGLLEAIKPARITLADIDYRIGSRWIPLAVYGKFAQETFMGKAYELSDQEVATVLEVSPIDGVITYQSKFAYTYSNATDRSLGVPASRYDSGRKIFENLLNSNQPTITKQVVEGDKKKNVTDVEKTTVLRAKETHLQELFQGFVAKYPEVQQMIEDTYNRLYNRTVSKSYDGSHLTIDGLAQNISLRPHQ,not soluble
8,MSLDPTRVDLLSICKEILTYPEYQERLPAGSAHPNIDSPAIKSLYAEIGRHSRQQTHVPSHYQLPPGDHLLIKQLAKITQDLGTPAKLDEIMVTHGAQQAISLALRATTQKGDIVAVESPCYFGNLLMLESLGLKVVEIPSCPRDGMCPEALAKTMATWDIKALIVTPNFTNPTGAMMPLEKRQQLLLASGNIPIIEDDVFGGLSYDKPLPSLSLLDDKQRVIYVNSLSKTLDSRLRIGWMLAGRYRDQIEQYLLCENMGSLNLMQSAVATFLTSGKYRTHTARMGRVYQNNMRRFIQMLHQYLDEYESLKNRYQINAVQGSFLLWLRLPEDTDSYALYQACNKHRISLLPGTVFGTQEQYRHCVRLSVANFGHETDWSHAMQTLAKLIAKRVCEGHHHHHH,soluble
9,MGHHHHHHSHMADQKKVSEAAKEREIKISSSDNEIFLVPRNVIRLSNTINTLLMDLGLDDEEGTNAEPIPVQNVTASILKKVISWCNHHHSDPISTEDSDNREKRTDDIGSWDVEFLKVDQGTLFELILAANYLDIKGLLDVTCKTVANMIKGKSPEEIRRTFNIKNDFTPEEEEQIRKENAWCED,soluble
10,MGSDKIHHHHHHMQDTKYYEPTNIFRQPAINIKKRSDKKRILQSMMTLSTYKKTWQNNTSKMNSPILRKASDNFNDYYTTKKLKSDYWKLYGVDESELSIPSDMSIVDNILLVSTMNEKDNLKLFEISAEKKLKELQTITVPGKPITCICLLPMVDFPPQIFPSSQINPNHNQLILTGHQDGIVNLIATSTYKGCAKIIKRFNHNKFLKSTVSTSIPILEITPKTAPILKVSPWNKTGFVSLLNDSLFIYDLKSNLDCIKTPIFLQSYPGINSFAVNEFHDPFLLALVGSKFGPNGISLLDLRTNLYIPDILDNSISAGCGKDHLQRKNTSLDCVWISNHHVAQSLNDKIQIWDIQSCDGKPVCELYAKKGYIESLKFNENTGALYSSDDQGFVICWDLQNLQNMKYGELVHGFNSISLDSESELLLTKQVFQCGNIIVSGMSDKNICLKSNDTKANGKGCGFLFLDMANDGSLVTLDNFCELGLHQICQVQFNVDTGKIIDGNGTGKSGISDSSMLSLSNESDHSMTETSDDMFSNSGNWDCSSANTVSEGRLNDDQEDIVFTKRMYSVNDVHLSGSTIDTTVV,not soluble
11,DWEVETGERYLPKLPECKIDNSKYQHPIQVVPSGPGMPEYLIYQVLTLAINQANRSVRITTPYFVPNTDLLETLKMTAQRGIDVELIIPHKNDSLMVQWASRAFYSELLAAGVKIYEFYGGLLHTKSVVIDDQFCLVGTVNMDMRSLWLNFEVTLAVDDEEFTKQLSWLQDGYIKQSHPVVLDEWEKRSLYSRFLERVFYLFNPLL,not soluble
12,MGESLDRCIDDINRAVDSMSTLYFKPPGIFHNAILQGASNKASIRKDITRLIKDCNHDEAYLLFKVNPEKQSVSRRDGKEGVFDYVIKRDTDMKRNRRLGRPGEKPIIHVPKEVYLNKDRLDLNNKRRRTATTSGGGLNGFIFDTDLIGSSVISNSSSGTFKALSAVFKDDPQIQRLLYALENGSVLMEEESNNQRRKTIFVEDFPTDLILKVMAEVTDLWPLTEFKQDYDQLYHNYEQLSSKLRFIKKEVLLQDDRLKTMSQYHPSSSHDVAKIIRKEKDEIRRLEMEIANLQE,not soluble
13,MGSDKIHHHHHHMEFWESSFIEKQTMWGFEPTESAILAKDFFLEKNVKDILVPGIGYGRNAKVFIENSINVTGIEISKTAIDLARENGLEDVSIYHGSVNEMPFDNKLYDGIFSHALLHLLNDQEREGFIENCYNQLKPGAYMVFTTVSKKAPMYGKGKQLDKDYYEIMEGVKMFFYDSESIKKDFNQYGLVQVSEIDEPNKNMANKPSINFLTIKCKKEL,not soluble
14,MLSRNIGAVRGAHKAATTKPVEKVAKLGNGLTVGTIDSHKPIAHLVLAFRAGSRYEKANQAGLSHTIRNFVGRDTQEYFGNTVVWTLSQTGGVLKSFTSRDLFGVSLTIPRESTSVGLSVLGQVAGNPGFKPWEVEDVLPTMRADNGYRTAYDLVVDQIHKAAYRNGGLGNSIYAPCSKIGSICTSTLSSFAEQHFVTGNGVLFATNAVHDDLLLYGDNHAPIRSGNAASPSSSAYKGGEVRRDADSKYAHVIVAGEGAAGNNTKALATQAVLLTALGNSSPVKFNTGTTGVIAKAVGQNGSASAFQAVHADSGLAGVYLVVEGSQANQAVSNVVGALKSLKVADIEAVKKQAFNNALRASAHSDNFAIERASQLFQSQDNYIQQIPNVSASDVEVAAKKLTTKLSLASYGNVSEVPYVDTL,not soluble
15,MITIITQDQLKTSPSVREDGRAFDELRPLKIEAGILERADGSSYLEFGGNKILVAVYGPREAQIRKLQRPDRAVIRCRYNMAPFSVEERKRPGPDRRSVEISKITAEALRPALILEKFPRSVIDVFIEVLEAEGGTRCAGITAASVALADAGIPMRDMVVACAAGKVGDQVVLDLSEEEDKEGQADVPVAILPRTREITLLQSDGNLTPEEFERALDLAVEGCLRIHEVQKEALRKRYGE,soluble
